Laboratory results taken from the nanobody polyreactivity screen of Harvey et al. (2022).

Assay: yeast display, Sf9 membrane polyspecificity reagent, FACS + sequencing; frameworks hold sequencing errors
Summary of the method: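 Galactose induction of a Saccharomyces cerevisiae BJ5465 synthetic nanobody display library ran 36–48 hours. The cells were then stained for 1 hour at 4 °C with 10% biotinylated, detergent-solubilized Sf9 membrane reagent, pulled down on streptavidin microbeads and FACS-sorted into low and high (top ~1%) gates on expression and reagent-binding fluorescence. Labels for polyreactivity follow the gate of origin.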

Sequence	polyreactivity (PSR sort gate)
QVQLVESGGGLVQAGGSLRLSCAASGSIFGFYGMGWYRQAPGKERELVAAISSRGGSTYYADSVKGRFTISRDNAKNTVYLQMNSLKPEDTAVYYCATERERTMGYWGQGTQVTVSW	high polyreactivity
QVQLVESGGGLVQAGGSLRLSCAASGSIFGGNAMGWSRQAPGKERELVAVITSGGSTYYADSVKGRFTISRDNAKNTVYLQMNSLKPEDTAVYYCNVDRLARKAHYDYWGQGTQVTVSS	high polyreactivity
QVQLVESGGGLVQAGGSLRLSCAASGSIFGGNAMGWYRPAPGTVRELVAAITSSGGSTYYADSVKGRFTMSRDNAKNTVYLQMNSLNPEDTAVYYSNKAYPGRTYDYWGQGTQVTVSS	high polyreactivity
QVQLVESGGGLVQAGGSLRLSCAASGSIFGGNAMGWYRQAPGKERELVATIDFSGTSTYYADSVKGRFTISRDHAKKTVYLQMHSLKPEDTSVSSCNARSYPDYIYWSQRYDYDFWGQGTQVTVSS	low polyreactivity
QVQLVESGGGLVQAGGSLRLSCAASGSIFGGNAMGWYRQAPGKETELVATITVRGGSTYYADSVKGRFRISRDNAKNSVYLQMNSLKPEDTAVYYCATEEVSRYRYGYWGQGTQVTVSS	low polyreactivity
QVQLVESGGGLVQAGGSLRLSCAASGSIFGGNDMGWSRQAPGKERAWVAAITATSGSTYYADSVKGRFTISRDNAKNTVYLQMNSLKPEDTAVYYCAAKPVGTYSRPHDYWGQGTQVTVSS	low polyreactivity
QVQLVESGGGLVQAGGSLRLSCAASGSIFGGNTMGWYRKAPGKERELVAAITNGGRTNYADSVKGRFTISRDNAKNTVYLQMNSLKPEDTAVYYCNAVTYSRRYAYYYWGQGTQVTVSS	high polyreactivity
QVQLVESGGGLVQAGGSLRLSCAASGSIFGGNTMGWYRQAPGKERELVAAISRSGGSTYYADSVKGRFTISRDNAKNTVYLQMNSLKPEDTAVYYCNRKQAGHAQGYDYWGQGTQVTVSS	high polyreactivity
QVQLVESGGGLVQAGGSLRLSCAASGSIFGGSGMGWYRQAPGKERELVAAITSGSSTYYADSVKGRFTISRDNAKNTVYLQMNSLKPEDTAVYYCAARPYPHSAYEGDYWGRGTQVTVSS	low polyreactivity
QVQLVESGGGLVQAGGSLRLSCAASGSIFGGYALGWYRQAPGKERELVAAISKTGGTTYYADSVKGRFTISRDNALNTVYLQMNSLKPEDTAVYYWNAPKRYYGSAYGYGYWGQGTQVTVSS	high polyreactivity
QVQLVESGGGLVQAGGSLRLSCAASGSIFGGYALGWYRQAPGNERELVAAITSSGGRTYYADSVKGRFTISRDNAKNTVYLQMNSLKPEDTAVYYCAARYTRWRYIYKDYDYWGQGTQVTVSS	high polyreactivity
QVQLVESGGGLVQAGGSLRLSCAASGSIFGGYAMGWYRQAPGKERELVAAISSSGGSTYYADSVKGRFTISRDNAKNTVYLQMHSLKPEDTAVYYCASSYHGRSYHLNYWGQGTQVTVSS	high polyreactivity
QVQLVESGGGLVQAGGSLRLSCAASGSIFGGYAMGWYRQAPGKERELVAAISYRGASTYYADSVKGRFTISRDNAKNTVYLQMNSLKPEDTAVYYCAARHDKRRQYYVGQSAFDYWGQGTQVTVSS	low polyreactivity
QVQLVESGGGLVQAGGSLRLSCAASGSIFGGYAMGWYRQAPGKERELVAAITSSGGRTYYADSVKGRFTISRDNAKNTVDLQMNSLKPEDTAVYYCAASPNYYYYYPMYYWGQGTQVTVSS	high polyreactivity
QVQLVESGGGLVQAGGSLRLSCAASGSIFGGYPMGWYRQAPGKERELVAAITYSAGNTYYADSVKGRFTISRDNAKNTFYVQMNSLKPEDTAVYYCNAVTKHRAITNMDYWGQGTQVTVSS	high polyreactivity
QVQLVESGGGLVQAGGSLRLSCAASGSIFGGYSMGWYRQAPGKEMELVARISSGGSTYYADSVKGRFTISRDNAKNTVYLQMNSLKQEDTAVYYCNAKTYTWWGLYEYWGQGTQVTVSS	high polyreactivity
QVQLVESGGGLVQAGGSLRLSCAASGSIFGGYTMGWYRQAPGKERELVAAISRRGGNTYYADSVKGRFTISRDNAKNTVYLQMNSMKPEDSAVYYCAVRWPSARIPVKLDYWGQGTQVNVSS	high polyreactivity
QVQLVESGGGLVQAGGSLRLSCAASGSIFGGYVMGWFRQAPGKERELVAAITSNGGITYADSVKGRFTISRDNAKNTVYLQMHSLKPEDTAVYYCAADSWFYGGEYKFGYYWGQGTQVTVSS	low polyreactivity
QVQLVESGGGLVQAGGSLRLSCAASGSIFGHYAMGWYRPAPGKERELVAGISSSSGGRTYYADSVKGRFTISRDNAKNTVYLQMNSLKPEDTAVDYCAAVYSVQVSRRAKYYYWGQGTQVTVSS	high polyreactivity
QVQLVESGGGLVQAGGSLRLSCAASGSIFGINAMGWYRQAPGKERELVAAISWRGDSTSYADSVKGRFTISRDNAKNTVYLQMNSLKPEDTAVYYCAKGGTRFYVVGETYYYWGQGTQVTVSS	low polyreactivity
QVQLVESGGGLVQAGGSLRLSCAASGSIFGINVMGWYRQAPGKERELVAAISRSGSSTYYADSVKGRFTISRDNAKNTVYLQMNSLKPEDTAVYYCNADRSTWTVLVWEYDYWGQGTQVTVSS	low polyreactivity
QVQLVESGGGLVQAGGSLRLSCAASGSIFGIYAMGWYRQAPGKERELVAAIRRGGSTYYADSVKGRFTISRDNAKNTVYLQMNSLKPEDTAVYYCAARKYRLWGKGVDYDYWGQGTQVTVSS	high polyreactivity

Sequence	polyreactivity (PSR sort gate)
QVQLVESGGGLVQAGGSLRLSCAASGSIFGIYAMGWYRQAPGKERELVAAIRRGGSTYYADSVKGRFTISRDNAKNTVYLQMNSLKPEDTAVYYCNTDYHRLLRSRPKYYYWGQGTQVTVSS	high polyreactivity
QVQLVESGGGLVQAGGSLRLSCAASGSIFGIYAMGWYRQAPGKERELVADITYSGGSTYYADSVKGRFTISRDNAKNTVYLQMNSLKPEDTAVYYCAADWVYVNAWTGGWTYEYWGQGTQVTVSS	high polyreactivity
QVQLVESGGGLVQAGGSLRLSCAASGSIFGKNAMGWYRQAPGKERELVAAISATGSRTYYADSVKGRFTISRDNAKNTVYLQMISLKPEETAVYSCTKLVRGVRPEEYDYGGQGTQVTVSS	high polyreactivity
QVQLVESGGGLVQAGGSLRLSCAASGSIFGKYAMGWYRQAPGKERELVAAISERTGRTYYADSVKGRFTISRDNAKNTVYLQMNSLKPEDTAVYYCNVVPLDSGWSTYGYDYWGQGTQVTVSS	high polyreactivity
QVQLVESGGGLVQAGGSLRLSCAASGSIFGKYTMGWYRQAPGKEREFVAAITSVGSTNYADSVKVRFTISRDNAKNTVYLQMNSLKPVDTAVYYCAADTIGYHYWYDYWGQGTQVTVSS	low polyreactivity
QVQLVESGGGLVQAGGSLRLSCAASGSIFGKYVMGWYRQAPGKERELVAALTFGGGSTYYADSVKGRFTISRDNAKNTVSLQMNTLKPEETAVYYCAAKSYDDRLYRRPRDYWGQGTQVTLSS	high polyreactivity
QVQLVESGGGLVQAGGSLRLSCAASGSIFGLNALGWSRQAPGKERELVAGITWSGGSSTYYADSVKGRFTISRDYAKNTVYLQMNSLKPEDTAVYNCAARRVFIPYYVRFYYWGQGTQVTVSS	high polyreactivity
QVQLVESGGGLVQAGGSLRLSCAASGSIFGLNAMGWYRQAPGKEREFVAAIDKNGAGTYYADSVKGRFTISRDNAKNTVYLQMNSLKPEDTAVYYCAAEYRSYGWYGYVVEYDYWGLGTQVTVSS	high polyreactivity
QVQLVESGGGLVQAGGSLRLSCAASGSIFGLNAMGWYRQAPGKERELVAAIDIIGGSTYYADSVKGRFTISRDNAKNTVYLQMNSLKPEDTAVYYCAAEADFWRFVEYDYWGQGSQVTVSS	low polyreactivity
QVQLVESGGGLVQAGGSLRLSCAASGSIFGLNAMGWYRQAPGKERELVAAINSDGDTYYADSVKGRFTISRDNAKNTVCLQMNSLKPEDTAVYYCAALQRRDHNGDYWGQGTQVTVSS	low polyreactivity
QVQLVESGGGLVQAGGSLRLSCAASGSIFGLYAMGWYRQAPGKERELVAAISSRGSSTYYADSVKGRFTISRDNAKNTVYIQMNSLKPEDTAVYYCNAYPFSRSVQLRDYWGQGTQVTVSS	low polyreactivity
QVQLVESGGGLVQAGGSLRLSCAASGSIFGLYAMGWYRQAPGKERELVAAITASDGSTYYADSVKGRFTISRDNAKNTVYLQMNSLKPEDTAVYYCNADAYSGYFLFDYWGQGTQVTVSS	low polyreactivity
QVQLVESGGGLVQAGGSLRLSCAASGSIFGLYGMGWYRQAPGKERELVAAISSGGTTNYADSVKGRFTISRDNAKNTVYLQMNSLKPEDTAVYYCAARYSRGAYIYYGWYGYGYWGQGTQVTVSS	low polyreactivity
QVQLVESGGGLVQAGGSLRLSCAASGSIFGNKAMGWYRQAPGKERELVAASSNDGDNSYYADSVKGRFTISRDKAKNTVYLQMNSLKPEDTAVYYCAADYVGVTSVRYDYWGQGTEVTVSS	low polyreactivity
QVQLVESGGGLVQAGGSLRLSCAASGSIFGNNAMGWYRQAPGKERELVAAISGSGGTRYADSVKGRFTISRDNAKNTVYFQLNSLKPEDTAVYYCSADDSWGGFHSPKAIGYDYWGQGTQVTVSS	low polyreactivity
QVQLVESGGGLVQAGGSLRLSCAASGSIFGNYVMGWYRQAPGKERELVAAITSDGSTYYADSVKGRFTISRDNAKNTVYLQMNSLKPEDTAVYYCNAVYEGLQSRWYKGGLYSFDYWGQGTQVTVSS	low polyreactivity
QVQLVESGGGLVQAGGSLRLSCAASGSIFGPNPMGWYRQAPGKERELVAAISWTGGRTYYADSVKGRFTISRDNAKNTVYLQMNSLKPEDTAVYYCAAARYLSGGYEKYDYWGQGTQVTVST	low polyreactivity
QVQLVESGGGLVQAGGSLRLSCAASGSIFGPYAMGWYRQAPGKERELVAAISRGSRTNYADSVKGRFTISRDNAKNTVYLQMNSLKPEDTAVYYCAARYVWRSTHHRGSTYDYWGQGTQVTVSS	high polyreactivity
QVQLVESGGGLVQAGGSLRLSCAASGSIFGPYAMGWYRQAPGKERELVATINRGVTTYYADSVKGRFTISRDNAKNTVYLQMNSLKPEDTAVYYCAARTYAKRPGYYWGQGTQVTVSS	high polyreactivity
QVQLVESGGGLVQAGGSLRLSCAASGSIFGPYAMGWYRQAPGKEREVVAAINSGGSTNYADSVKGRFTISRDNAKNTVYLQMNSLKPEDTAVYYCNAADERSQGWVGYDHWGQCTQVTVSS	low polyreactivity
QVQLVESGGGLVQAGGSLRLSCAASGSIFGQYAMGWYRQAPGKEREYVAAISWRGTSTYYADSVKGRFTISRDNAKNTVYLQMNSLKPEDTAVYYCAGRYVKPSRYKYNYWGQGTQVTVSS	high polyreactivity
